The text below walks through data of US20240101654A1 (NEURIMMUNE, published 2024).

The target of the assay is AD-associated Tau in brain extracts of patients with AD (human, UniProt P10636-8 2-441, limits assumed, pathologically modified (sites not given)). The assay can be described thus: cell-based or functional assay.
Sequence of AD-associated Tau in brain extracts of patients with AD (P10636 other isoform, or with tags, fused parts or gaps limits assumed): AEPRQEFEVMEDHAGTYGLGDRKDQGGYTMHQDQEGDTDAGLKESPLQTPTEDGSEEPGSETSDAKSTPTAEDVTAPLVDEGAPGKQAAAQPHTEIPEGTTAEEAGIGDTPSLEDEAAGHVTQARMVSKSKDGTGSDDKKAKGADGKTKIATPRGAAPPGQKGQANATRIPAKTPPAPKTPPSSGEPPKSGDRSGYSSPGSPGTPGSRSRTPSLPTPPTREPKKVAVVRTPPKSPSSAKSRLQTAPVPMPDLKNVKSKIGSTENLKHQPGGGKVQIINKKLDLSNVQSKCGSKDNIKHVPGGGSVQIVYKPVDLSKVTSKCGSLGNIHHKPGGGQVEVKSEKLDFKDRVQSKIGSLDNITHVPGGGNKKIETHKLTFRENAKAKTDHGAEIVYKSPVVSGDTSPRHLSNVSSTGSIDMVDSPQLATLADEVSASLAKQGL

B1: NI-502.8H1 (antibody, V domains shown)
VH: EVQLVESGGGLVQPGGSLRLSCAASGFTFSIYTMSWVRQAPGKGLEWVSAILSDGSTYYADSVEGRFTISRDNSKTTLYLQMNSLTAEDTAVYYCTKRVEGSFRGWGQGTLVTVSS
VL: EIVMTQSPGTLSLSPGESATLSCRASQSVSTTYLAWYQQKPGQAPRLLIYGASSRATGIPDRFSGSGSGTDFTLTISRLEPEDFAVYYCQQYGGSRLITFGQGTRLEIK
As for B1, the “IC50 of Tau aggregation (FRET) in HEK293T Tau biosensor cells seeded with immunodepleted AD brain homogenate” value was determined as 7.1 µg/mL.

B2: NI-502.4P3 (antibody, V domains shown)
VH: EVQLVQSGAEVKKPGESLKISCKVSGYDFSKYWIGWVRQMPGKGLEWMGLIYPGDSDTRYSPSLEGQVSISADKSISAAYLQFSSLKASDSAMYYCVRKGYSAYLGGWFDPWGQGTLVTVSS
VL: DIQLTQSPDSLAASLGERVTINCRSSQNIFYNSNNKNFLAWYQQKAGQSPKLLIYWASTRESGVPDRFSGSGSGTDFTLTISGLQAGDVAVYFCQQYFTDAPTFGGGTKVEIK
In the case of B2, the “IC50 of Tau aggregation (FRET) in HEK293T Tau biosensor cells seeded with immunodepleted AD brain homogenate” value worked out at 6.5 µg/mL.
